Biological target: microtubules (Example 3)

B1: Drosophila kinesin heavy chain fragment containing amino acids 5-351 with a C-terminal hexahistidine tag (protein)
chain: REIPAEDSIKVVCRFRPLNDSEEKAGSKFVVKFPNNVEENCISIAGKVYLFDKVFKPNASQEKVYNEAAKSIVTDVLAGYNGTIFAYGQTSSGKTHTMEGVIGDSVKQGIIPRIVNDIFNHIYAMEVNLEFHIKVSYYEIYMDKIRDLLDVSKVNLSVHEDKNRVPYVKGATERFVSSPEDVFEVIEEGKSNRHIAVTNMNEHSSRSHSVFLINVKQENLENQKKLSGKLYLVDLAGSEKVSKTGAEGTVLDEAKNINKSLSALGNVISALADGNKTHIPYRDSKLTRILQESLGGNARTTIVICCSPASFNESETKSTLDFGRRAKTVKNVVCVNEELTAEEWKRRHHHHHH
Question: With B1 as the protein, how does the “stimulation of the basal ATPase rate” value read?
Answer: Its value is 1,000-fold stimulation of the basal ATPase rate.
